What was measured:
reduced CFHR3 = target: T1, reduced CFHR3 (UniProt Q02985 19-330, limits assumed); assay: ELISA, reduced antigen
T1 sequence (looked up): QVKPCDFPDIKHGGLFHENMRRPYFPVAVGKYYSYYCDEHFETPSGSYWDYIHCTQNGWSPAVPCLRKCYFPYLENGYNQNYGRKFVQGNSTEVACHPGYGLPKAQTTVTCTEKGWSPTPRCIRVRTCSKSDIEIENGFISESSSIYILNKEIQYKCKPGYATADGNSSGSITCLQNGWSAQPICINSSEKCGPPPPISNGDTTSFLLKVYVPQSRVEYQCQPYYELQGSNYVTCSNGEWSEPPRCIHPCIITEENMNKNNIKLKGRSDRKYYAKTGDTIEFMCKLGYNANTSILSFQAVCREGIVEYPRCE

reduced CFHR5 = target: T2, reduced CFHR5 (UniProt Q9BXR6 19-569, limits assumed); assay: ELISA, reduced antigen
T2 sequence (looked up): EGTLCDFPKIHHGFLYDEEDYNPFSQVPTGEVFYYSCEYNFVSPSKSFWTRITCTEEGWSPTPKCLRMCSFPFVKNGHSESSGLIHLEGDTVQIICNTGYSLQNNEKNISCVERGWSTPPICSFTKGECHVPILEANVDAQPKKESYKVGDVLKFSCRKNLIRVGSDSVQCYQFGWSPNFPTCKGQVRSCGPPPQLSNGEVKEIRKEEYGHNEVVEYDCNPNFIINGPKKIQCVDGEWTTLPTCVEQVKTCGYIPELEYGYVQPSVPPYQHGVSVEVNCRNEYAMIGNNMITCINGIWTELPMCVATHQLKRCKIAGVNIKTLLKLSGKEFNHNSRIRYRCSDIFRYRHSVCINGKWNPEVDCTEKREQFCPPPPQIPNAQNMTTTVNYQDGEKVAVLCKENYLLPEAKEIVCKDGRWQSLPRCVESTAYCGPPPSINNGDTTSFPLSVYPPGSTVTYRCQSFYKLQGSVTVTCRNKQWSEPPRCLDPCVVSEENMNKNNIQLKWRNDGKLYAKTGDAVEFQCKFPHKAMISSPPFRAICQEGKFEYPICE

reduced CFHR1 = target: T3, reduced CFHR1 (UniProt Q03591 19-330, limits assumed); assay: ELISA, reduced antigen
T3 sequence (looked up): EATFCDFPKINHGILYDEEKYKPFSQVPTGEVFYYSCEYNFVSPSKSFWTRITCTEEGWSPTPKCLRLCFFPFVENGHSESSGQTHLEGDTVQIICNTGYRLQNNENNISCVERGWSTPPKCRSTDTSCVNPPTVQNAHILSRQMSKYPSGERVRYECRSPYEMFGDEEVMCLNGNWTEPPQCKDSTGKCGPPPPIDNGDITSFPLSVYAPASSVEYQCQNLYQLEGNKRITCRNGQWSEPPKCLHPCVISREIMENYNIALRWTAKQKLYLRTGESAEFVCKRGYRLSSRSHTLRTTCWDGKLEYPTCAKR

reduced CFHR2 = target: T4, reduced CFHR2 (UniProt P36980 19-270, limits assumed); assay: ELISA, reduced antigen
T4 sequence (looked up): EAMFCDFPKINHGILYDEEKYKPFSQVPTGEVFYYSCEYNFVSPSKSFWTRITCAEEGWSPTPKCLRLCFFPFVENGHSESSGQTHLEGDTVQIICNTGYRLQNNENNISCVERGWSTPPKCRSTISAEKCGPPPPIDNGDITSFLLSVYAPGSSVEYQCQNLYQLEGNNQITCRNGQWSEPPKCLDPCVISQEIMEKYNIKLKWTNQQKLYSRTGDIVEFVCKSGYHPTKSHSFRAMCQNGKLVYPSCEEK

reduced CFH [1] = target: T5, reduced CFH (Homo sapiens (Human), UniProt P08603 860-1231, limits assumed); assay: ELISA, reduced antigen
T5 construct: also called CFH (reduced)
T5 sequence: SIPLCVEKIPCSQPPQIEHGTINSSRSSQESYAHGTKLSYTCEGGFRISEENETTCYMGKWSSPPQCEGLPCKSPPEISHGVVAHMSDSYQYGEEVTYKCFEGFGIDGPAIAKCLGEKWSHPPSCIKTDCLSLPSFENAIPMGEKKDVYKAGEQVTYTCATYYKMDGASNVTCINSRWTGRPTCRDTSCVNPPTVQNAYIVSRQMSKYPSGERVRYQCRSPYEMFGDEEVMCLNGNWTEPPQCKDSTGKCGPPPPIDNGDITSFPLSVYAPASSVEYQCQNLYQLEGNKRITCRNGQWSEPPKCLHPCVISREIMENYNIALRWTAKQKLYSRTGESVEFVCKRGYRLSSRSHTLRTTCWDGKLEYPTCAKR

non-reduced CFHR1 = target: T6, non-reduced CFHR1; assay: ELISA, non-reduced antigen
T6 construct: also called CFHR1 (NON-REDUCED)
T6 chain: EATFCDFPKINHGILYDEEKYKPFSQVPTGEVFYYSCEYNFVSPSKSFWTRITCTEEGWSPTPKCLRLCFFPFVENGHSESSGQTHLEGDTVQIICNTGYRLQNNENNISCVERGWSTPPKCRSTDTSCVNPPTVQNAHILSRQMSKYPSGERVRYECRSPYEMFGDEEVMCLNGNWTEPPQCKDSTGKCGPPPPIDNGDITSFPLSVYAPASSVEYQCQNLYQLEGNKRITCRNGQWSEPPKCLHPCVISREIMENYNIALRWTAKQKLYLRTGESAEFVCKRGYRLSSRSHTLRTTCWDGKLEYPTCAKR

non-reduced CFHR3 = target: T7, non-reduced CFHR3; assay: ELISA, non-reduced antigen
T7 construct: also called CFHR3 (NON-REDUCED)
T7 chain: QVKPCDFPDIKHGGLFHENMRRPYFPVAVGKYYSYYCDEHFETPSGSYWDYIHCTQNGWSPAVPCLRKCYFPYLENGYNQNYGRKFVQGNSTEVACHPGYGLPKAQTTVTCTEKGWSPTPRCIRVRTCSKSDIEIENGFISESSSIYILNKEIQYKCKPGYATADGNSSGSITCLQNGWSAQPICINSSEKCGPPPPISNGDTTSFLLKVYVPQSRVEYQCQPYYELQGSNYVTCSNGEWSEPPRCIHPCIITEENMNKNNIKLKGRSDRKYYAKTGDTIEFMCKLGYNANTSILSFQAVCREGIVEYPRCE

non-reduced CFHR5 = target: T8, non-reduced CFHR5; assay: ELISA, non-reduced antigen
T8 construct: also called CFHR5 (NON-REDUCED)
T8 chain: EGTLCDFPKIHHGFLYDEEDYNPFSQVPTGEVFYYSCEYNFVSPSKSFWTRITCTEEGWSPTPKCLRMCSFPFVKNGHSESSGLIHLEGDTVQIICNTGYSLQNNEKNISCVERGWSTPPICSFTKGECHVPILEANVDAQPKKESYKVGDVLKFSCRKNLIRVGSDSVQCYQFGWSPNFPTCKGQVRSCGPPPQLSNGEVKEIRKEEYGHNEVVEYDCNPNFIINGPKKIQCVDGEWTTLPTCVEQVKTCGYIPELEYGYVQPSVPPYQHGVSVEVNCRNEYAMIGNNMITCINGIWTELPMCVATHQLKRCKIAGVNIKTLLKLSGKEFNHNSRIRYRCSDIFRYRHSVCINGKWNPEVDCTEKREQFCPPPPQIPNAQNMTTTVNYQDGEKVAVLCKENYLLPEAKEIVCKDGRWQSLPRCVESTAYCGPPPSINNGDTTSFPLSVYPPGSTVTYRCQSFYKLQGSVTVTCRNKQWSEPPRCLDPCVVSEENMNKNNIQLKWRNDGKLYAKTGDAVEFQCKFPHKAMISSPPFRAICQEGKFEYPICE

non-reduced CFHR4 = target: T9, non-reduced CFHR4; assay: ELISA, non-reduced antigen
T9 construct: not reduced; also called CFHR4 (NON-REDUCED)

reduced CFH [2] = target: T5, reduced CFH; assay: ELISA on reduced CFH after heating the mAb (70 C, 1 h, as Figure 16)

Row | Binder | binding result (reduced CFHR3) | fold change vs isotype at 1 ug/ml (reduced CFHR3) [fold] | binding result (reduced CFHR5) | fold change vs isotype at 1 ug/ml (reduced CFHR5) [fold] | fold change vs isotype at 1 ug/ml (reduced CFHR1) [fold] | fold change vs isotype at 1 ug/ml (reduced CFHR2) [fold] | fold change vs isotype at 1 ug/ml (reduced CFH [1]) [fold] | fold change vs isotype at 1 ug/ml (non-reduced CFHR1) [fold] | binding result (non-reduced CFHR3) | fold change vs isotype at 1 ug/ml (non-reduced CFHR3) [fold] | binding result (non-reduced CFHR5) | fold change vs isotype at 1 ug/ml (non-reduced CFHR5) [fold] | fold change vs isotype at 1 ug/ml (non-reduced CFHR4) [fold] | Harsh Heat challenge ELISA value (reduced CFH [2])
1 | ATL4717 (antibody, human IgG1, kappa, V domains shown, Human IgG1; also called ATL0004717; ATL04717) VH: QVQLVESGGGMVQPGRSLRLSCAASGFTFSIYGMHWVRQAPGRGLEWVAVMSFDGKTKYYADSVKGRFTISRDNSKNTLYLQMNSLRRVDTAVYYCAKGGATAAVFDSWGQGTLVTVSS VL: not shown | no binding (tested: 1 ug/ml) | 0.9 | no binding (tested: 1 ug/ml) | 1 | 23.8 | 10.7 | 17.6 | 10.7 | no binding (tested: 1 ug/ml) | 0.9 | no binding (tested: 1 ug/ml) | 0.9 | 0.9 | 0.04
2 | ATL5170 (antibody, human IgG1, kappa, V domains shown, IgG1; also called ATL_0005170) VH: QVQLVESGGGVVQPGRSLRLSCAASGFTFSNYGMHWVRQAPGKGLEWVAVTSFDGKTKYYADSVKGRFTISRDNSKNTLYLQMNSLRAEDTAVYYCAKGGATAAVLDSWGQGTLVTVSS VL: not shown | – | 1 | – | 1.1 | 23.1 | 8.4 | 18.1 | 8.4 | no binding (tested: 1 ug/ml) | 1 | no binding (tested: 1 ug/ml) | 1 | 0.9 | 0.49

Source: patent US20250304666A1 (ALCHEMAB THERAPEUTICS, published 2025)
